Measurements reported in patent publication US20140205597A1 (published 2014).
Residue numbers refer to the chain shown, from its start.

B1: SEQ ID NO 76 (VHH)
VHH: EVQLVESGGGLVQPGGSLRLSCAASRSIGRLDRMGWYRHRPGEPRELVATITGGSSINYGDSVKGRFTISIDNSKNTVYLQMNSLRPEDTAVYYCNFNKYVTSRDTWGQGTLVTVSS
notes: C-terminal: GGG
B2: SEQ ID NO 79 (VHH)
VHH: B1 VHH
notes: C-terminal: GG
B3: A007901255, monovalent form (VHH)
VHH: DVQLVESGGGLVQPGGSLRLSCAASGFTFDDYAIGWFRQAPGEEREGVSSISSTYGLTYYADSVKGRFTISSDNSKNTVYLQMNSLRPEDTAVYYCAATPIGLIGLDAYEYDYWGQGTLVTVSS
notes: anti-c-MET Nanobody
B4: A007901256, monovalent form (VHH)
VHH: B3 VHH with T28A
notes: anti-c-MET Nanobody
B5: A007901259, monovalent form (VHH)
VHH: B3 VHH with E46L
notes: anti-c-MET Nanobody
B6: A007901260, monovalent form (VHH)
VHH: B3 VHH with T28A, E46L
notes: anti-c-MET Nanobody

Key:
[1] = target: T1, purified interference factor(s) from serum of Donor A; assay: Biacore, immobilized interference factor
T1 construct: text names Donors 8, 19 and 30

[2] = target: T2, purified interference factor(s) from serum of Donor B; assay: Biacore, immobilized interference factor
T2 construct: text names Donors 8, 19 and 30

[3] = target: T3, purified interference factor(s) from serum of Donor C; assay: Biacore, immobilized interference factor
T3 construct: text names Donors 8, 19 and 30

[4] = target: T4, monoclonal antibody 21-4-3; assay: Biacore, captured 21-4-3
T4 construct: mouse IgG1 heavy chain, kappa light chain; also called mAb21-4-3; produced by hybridoma ABH0015 (LMBP-9680-CB)
Description: Binding measurements were performed using a Biacore T100 using a CM5 T120416 sensor chip, with running buffer HBS-EP+, 25° C. […] The anti-mouse IgG used was a polyclonal rabbit anti-mouse IgG antibodies reacting with all IgG subclasses, IgA and IgM (GE Healthcare; Cat#BR-1008-38; Lot#10056316). Immobilisation of the anti-mouse IgG was performed using manual amine coupling using a 7 minute injection of EDC/NHS for activation and a 7 minute injection of 1M ethanolamine HCl pH 8.5 for deactivation (Biacore, amine coupling kit).

cMet/Fc = target: T5, cMet/Fc (UniProt P08581 25-932); assay: HGF-competition Alphascreen, monovalent form
T5 construct: not shown: Fc part not specified
T5 sequence (P08581 25-932): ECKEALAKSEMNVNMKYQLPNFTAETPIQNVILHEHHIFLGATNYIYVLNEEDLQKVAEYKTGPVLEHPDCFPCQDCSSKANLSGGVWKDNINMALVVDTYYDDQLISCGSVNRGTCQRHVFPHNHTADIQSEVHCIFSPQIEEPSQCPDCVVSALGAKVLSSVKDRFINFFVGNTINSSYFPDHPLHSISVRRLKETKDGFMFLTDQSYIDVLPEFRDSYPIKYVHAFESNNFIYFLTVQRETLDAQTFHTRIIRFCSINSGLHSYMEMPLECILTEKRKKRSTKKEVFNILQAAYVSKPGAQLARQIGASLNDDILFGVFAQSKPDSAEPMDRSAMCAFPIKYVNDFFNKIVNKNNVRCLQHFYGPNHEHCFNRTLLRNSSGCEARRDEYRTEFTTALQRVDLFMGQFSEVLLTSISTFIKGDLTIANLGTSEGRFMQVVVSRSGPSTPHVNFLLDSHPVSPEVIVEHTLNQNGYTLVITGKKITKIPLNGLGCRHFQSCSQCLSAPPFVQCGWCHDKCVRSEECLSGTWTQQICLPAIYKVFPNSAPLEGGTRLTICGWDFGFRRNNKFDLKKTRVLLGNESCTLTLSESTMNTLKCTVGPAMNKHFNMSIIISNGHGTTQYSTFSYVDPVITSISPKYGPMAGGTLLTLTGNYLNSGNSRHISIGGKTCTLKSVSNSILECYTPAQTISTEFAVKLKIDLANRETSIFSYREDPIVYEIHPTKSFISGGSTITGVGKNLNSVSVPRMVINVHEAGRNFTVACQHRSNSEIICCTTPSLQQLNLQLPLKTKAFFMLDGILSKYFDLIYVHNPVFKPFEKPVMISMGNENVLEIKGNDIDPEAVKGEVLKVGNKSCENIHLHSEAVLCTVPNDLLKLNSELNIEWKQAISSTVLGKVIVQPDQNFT

Row | Binder | binding vs Reference Sequence (=100%) [1] [%] | binding vs Reference Sequence (=100%) [2] [%] | binding vs Reference Sequence (=100%) [3] [%] | binding vs Reference Sequence (=100%) [4] [%] | IC50 (cMet/Fc) [pM]
1 | B1 | 2 | 17 | 20 | 2 | 
2 | B2 | 1 | 17 | 13 | 2 | 
3 | B3 |  |  |  |  | 91
4 | B4 |  |  |  |  | 48
5 | B5 |  |  |  |  | 43
6 | B6 |  |  |  |  | 35
